In US20200017592A1 (Regeneron, published 2020):
Where a chain is given by its changes, count along the chain named.

B1: H4H14706P2 (antibody, human IgG4 S228P, kappa, V domains shown)
VH: EVQLVESGGGLVQPGRSLRLSCTASGFTFDDYAIHWVRQSPGKGLEWVSVISWNSDVIGYADSVKGRFTISRDNAKNSLYLQMNSLRAEDTALYYCAKGYNWNFFDYWGQGTLVTVSS
VL: EIVLTQSPATLSLSPGERATLSCRASQSVSSYLAWYQQKPGQAPRLLIYNAANRATDIPARFSGSGSGTDFTLTISSLEPEDFAVYYCQQRSNWPLTFGGGTKVEIKR
notes: Fully human anti-IL-36R antibody
B2: H4H14708P2 (antibody, human IgG4 S228P, kappa, V domains shown)
VH: EVQLVESGGDLVQPGRSLRLSCAASGFTFDDYAMHWVRQAPGKGLEWVSVISWNSDVIAYSDSVKGRFTISRDNAKNSLYLQMNSLRTEDTALYYCTKGHKWSFFDYWGQGTLVTVSS
VL: B1 VL with V29I, Y49F, A51V
notes: as for B1

Legend:
[1] = molecular target: T1, in-line fusion protein of human IL-36R extracellular domain and IL1RAcP extracellular domain expressed with … (human; mouse, UniProt Q9HB29 20-337; Q9NPH3 21-359, limits assumed); experiment: SPR Biacore 4000, mAb captured on anti-hFc, 37C
T1 construct: not shown: mouse IgG2a Fc
T1 sequence (looked up): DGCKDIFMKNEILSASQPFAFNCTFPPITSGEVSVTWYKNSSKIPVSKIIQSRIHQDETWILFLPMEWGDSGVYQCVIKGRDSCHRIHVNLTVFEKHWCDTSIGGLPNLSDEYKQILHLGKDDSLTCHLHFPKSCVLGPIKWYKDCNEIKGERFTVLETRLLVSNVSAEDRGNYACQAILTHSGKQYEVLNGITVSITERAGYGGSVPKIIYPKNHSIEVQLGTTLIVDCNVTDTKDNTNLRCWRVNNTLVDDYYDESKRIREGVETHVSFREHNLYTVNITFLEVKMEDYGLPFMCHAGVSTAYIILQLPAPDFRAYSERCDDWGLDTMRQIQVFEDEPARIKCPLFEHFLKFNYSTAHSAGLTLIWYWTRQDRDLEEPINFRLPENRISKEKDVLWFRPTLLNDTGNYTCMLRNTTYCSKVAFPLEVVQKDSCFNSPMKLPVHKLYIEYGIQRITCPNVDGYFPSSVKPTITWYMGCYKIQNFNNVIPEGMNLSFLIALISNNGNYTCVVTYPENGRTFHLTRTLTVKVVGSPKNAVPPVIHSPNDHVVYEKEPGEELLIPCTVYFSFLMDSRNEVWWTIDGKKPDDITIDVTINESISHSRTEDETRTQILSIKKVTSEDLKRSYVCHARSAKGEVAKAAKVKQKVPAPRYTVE
Procedure: (§1) Equilibrium dissociation constants (KD values) for IL-36R binding to purified anti-IL-36R antibodies were determined using a real-time surface plasmon resonance biosensor using a Biacore 4000 instrument. The Biacore sensor surface was first derivatized by amine coupling with a monoclonal mouse anti-human Fc antibody (GE, # BR-1008-39) to capture anti-IL-36R monoclonal antibodies. All binding studies were performed in 0.01 M Hepes pH 7.4, 0.15 M NaCl, 3 mM EDTA, and 0.05% v/v Surfactant Tween-20 (HBS-ET running buffer) at 25° C. and 37° C. Different concentrations of IL-36R reagents, human IL-36R extracellular domain expressed with a C-terminal myc-myc-hexahistidine tag (hIL-36R-MMH), Macaca fascicularis IL-36R extracellular domain expressed with a C-terminal myc-myc-hexahistidine tag (mfIL-36R-MMH: mROR1 signal sequence (M1-A29). Macaca fascicularis IL36R_ecto domain (D20-A336).mycmycHis6), human IL-36R extracellular domain expressed with a C-terminal mouse IgG2a Fc tag (hIL-36R-mFc: mROR1 signal sequence (M1-A29)-human IL36R (D20-Y337)-mouse IgG2aFc (E98-K330)) or an in-line fusion protein of human IL-36R extracellular domain and IL1RAcP extracellular domain expressed with mouse IgG2a Fc tag (hIL-36R-Trap-mFc: mROR1 signal sequence (M1-A29)-human IL36R ecto domain (D20-Y337)-human IL1RacP ecto domain(S21-E359)-mouse IgG2aFc) in HBS-ET running buffer (ranging from 100 nM to 3.7 nM, 3-fold dilutions) were injected over the anti-IL-36R antibody captured surface for 4 minutes at a flow rate of 30 μL/minute and their dissociation in HBS-ET running buffer was monitored for 10 minutes. Kinetic association rate constant (kₐ) and dissociation rate constant (kd) were determined by fitting the real-time sensorgrams to a 1:1 binding model using Scrubber 2.0c curve fitting software. Binding dissociation equilibrium constants (KD) and dissociative half-lives (t_{1/2}) were calculated from the kinetic rate constants as: […]

[2] = molecular target: T2, human IL-36R extracellular domain expressed with a C-terminal mouse IgG2a Fc tag (hIL-36R-mFc) (human; mouse, UniProt Q9HB29 20-337); experiment: SPR Biacore 4000, mAb captured on anti-hFc, 37C
T2 construct: not shown: mouse IgG2a Fc, E98-K330
T2 sequence (looked up): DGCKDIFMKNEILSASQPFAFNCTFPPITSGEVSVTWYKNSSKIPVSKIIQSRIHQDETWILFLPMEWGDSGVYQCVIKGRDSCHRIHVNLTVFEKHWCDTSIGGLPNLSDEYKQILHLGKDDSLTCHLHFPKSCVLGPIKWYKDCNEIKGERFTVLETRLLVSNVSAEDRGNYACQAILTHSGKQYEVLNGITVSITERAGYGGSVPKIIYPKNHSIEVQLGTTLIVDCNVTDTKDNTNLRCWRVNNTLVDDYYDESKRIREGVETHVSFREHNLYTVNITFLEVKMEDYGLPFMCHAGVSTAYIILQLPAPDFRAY
Procedure: as §1

[3] = molecular target: T3, human IL-36R extracellular domain expressed with a C-terminal myc-myc-hexahistidine tag (hIL-36R-MMH) (human, UniProt Q9HB29 20-337); experiment: SPR Biacore T200, mAb captured on anti-hFc, 37C, PBS-T pH 6.0 running buffer
T3 construct: also called Human IL-36R-MMH; REGN2105
T3 sequence (Q9HB29 other isoform, or with tags, fused parts or gaps limits assumed): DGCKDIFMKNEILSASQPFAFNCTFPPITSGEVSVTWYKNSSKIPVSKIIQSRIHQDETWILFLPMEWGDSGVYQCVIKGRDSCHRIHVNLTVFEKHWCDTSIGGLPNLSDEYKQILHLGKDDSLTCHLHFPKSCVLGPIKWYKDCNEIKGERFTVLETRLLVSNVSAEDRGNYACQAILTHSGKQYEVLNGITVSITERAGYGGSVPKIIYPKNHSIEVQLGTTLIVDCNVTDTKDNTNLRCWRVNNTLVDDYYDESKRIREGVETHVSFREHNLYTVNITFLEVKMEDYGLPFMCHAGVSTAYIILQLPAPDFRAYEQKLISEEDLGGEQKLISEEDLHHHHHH
Procedure: (§2) Additional binding experiments were performed to determine the effect of pH on the rate of dissociation of IL-36R bound to purified anti-IL-36R antibodies, which was determined using a real-time surface plasmon resonance biosensor using a Biacore T200 instrument. The Biacore sensor surface was first derivatized by amine coupling with a monoclonal mouse anti-human Fc antibody (GE, # BR-1008-39) to capture anti-IL-36R antibodies. […] Different concentrations of hIL-36R-MMH and mfIL-36R-MMH prepared in PBS-T, pH7.4 buffer (ranging from 100 nM to 11.11 nM, 3-fold dilutions) were injected over the anti-IL-36R antibody captured surface for 4 minutes at a flow rate of 50 μL/minute and their dissociation in two running buffers, PBS-T, pH7.4 and PBS-T, pH 6.0, was monitored for 10 minutes. All of these binding kinetics experiments were performed at 25° C. and 37° C. Kinetic dissociation constant (kd) were determined by fitting the real-time sensorgrams to a 1:1 binding model using Scrubber 2.0c curve fitting software. Binding dissociative half-lives (t_{1/2}) were calculated from kd as: […]

[4] = molecular target: T3, human IL-36R extracellular domain …; experiment: SPR Biacore T200, mAb captured on anti-hFc, 37C, PBS-T pH 7.4 running buffer
Procedure: as §2

[5] = molecular target: T1, in-line fusion protein of human IL-36R …; experiment: SPR Biacore 4000, mAb captured on anti-hFc, 25C
Procedure: as §1

[6] = molecular target: T2, human IL-36R extracellular domain …; experiment: SPR Biacore 4000, mAb captured on anti-hFc, 25C
Procedure: as §1

[7] = molecular target: T3, human IL-36R extracellular domain …; experiment: SPR Biacore T200, mAb captured on anti-hFc, 25C, PBS-T pH 6.0 running buffer
Procedure: as §2

[8] = molecular target: T3, human IL-36R extracellular domain …; experiment: SPR Biacore T200, mAb captured on anti-hFc, 25C, PBS-T pH 7.4 running buffer
Procedure: as §2

Binder	100 nM hIL-36R-Trap-mFc Bound (RU) [1] [RU]	Kd [1] [nM]	koff [1] [s⁻¹]	kon [1] [M⁻¹ s⁻¹]	t1/2 [1] [min]	100 nM hIL-36R-mFc Bound (RU) [2] [RU]	Kd [2] [nM]	koff [2] [s⁻¹]	kon [2] [M⁻¹ s⁻¹]	t1/2 [2] [min]	100 nM hIL-36R-MMH Bound (RU) [3] [RU]	koff [3] [s⁻¹]	t1/2 [3] [min]	100 nM hIL-36R-MMH Bound (RU) [4] [RU]	koff [4] [s⁻¹]	t1/2 [4] [min]	100 nM hIL-36R-Trap-mFc Bound (RU) [5] [RU]	Kd [5] [nM]	koff [5] [s⁻¹]	kon [5] [M⁻¹ s⁻¹]	other results
B1	264	0.551	0.000271	491000	43	207	0.449	0.000266	593000	43	132	0.00233	5	140	0.00131	9	205	0.232	0.00011	477000	t1/2 [5]: 105 min; 100 nM hIL-36R-mFc Bound (RU) [6]: 163 RU; Kd [6]: 0.23 nM; koff [6]: 0.000132 s⁻¹; kon [6]: 575000 M⁻¹ s⁻¹; t1/2 [6]: 87 min; 100 nM Human IL-36R-MMH Bound (RU) [7]: 109 RU; koff [7]: 0.000927 s⁻¹; t1/2 [7]: 12 min; 100 nM Human IL-36R-MMH Bound (RU) [8]: 119 RU; koff [8]: 0.000616 s⁻¹; t1/2 [8]: 19 min
B2	239	0.656	0.000253	385000	46	203	0.435	0.0002	460000	58	95	0.00337	3	105	0.00177	7	172	0.357	0.000129	361000	t1/2 [5]: 90 min; 100 nM hIL-36R-mFc Bound (RU) [6]: 146 RU; Kd [6]: 0.317 nM; koff [6]: 0.000128 s⁻¹; kon [6]: 403000 M⁻¹ s⁻¹; t1/2 [6]: 90 min; 100 nM Human IL-36R-MMH Bound (RU) [7]: 79 RU; koff [7]: 0.00163 s⁻¹; t1/2 [7]: 7 min; 100 nM Human IL-36R-MMH Bound (RU) [8]: 87 RU; koff [8]: 0.000796 s⁻¹; t1/2 [8]: 15 min
